Kd data for 1 molecule are collected here from publication PMC11194070, “Despite the odds: formation of the SARS-CoV-2 methylation complex” (Nucleic Acids Research, 2024).

This assay has as its target T1, SARS-CoV-2 nonstructural protein 10 (nsp10) (SARS-CoV-2, UniProt P0DTD1 4254-4392).
T1 construct: also called 2H15N-nsp10; apo-nsp10
Description: MST. The settings on record: both partners purified.

B1: nsp14ExoN, nsp14 without the methyltransferase domain but retaining the exonuclease activity (domain or fragment)
chain: AENVTGLFKDCSKVITGLHPTQAPTHLSVDTKFKTEGLCVDIPGIPKDMTYRRLISMMGFKMNYQVNGYPNMFITREEAIRHVRAWIGFDVEGCHATREAVGTNLPLQLGFSTGVNLVAVPTGYVDTPNNTDFSRVSAKPPPGDQFKHLIPLMYKGLPWNVVRIKIVQMLSDTLKNLSDRVVFVLWAHGFELTSMKYFVKIGPERTCCLCDRRATCFSTASDTYACWHHSIGFDYVYNPFMIDVQQWGFTGNLQSNHDLYCQVHGNAHVASCDAIMTRCLAVHECFVKRVDWTIE
For the molecule B1, the Kd (usually the constant that tells how readily two partners part at equilibrium) came to 4.55 ± 2.68 µM.
